Key:
[1] = biological target: T1, human PD-L1 on the cell surface (CHO-K1 cells stably expressing human PD-L1) (human, UniProt Q9NZQ7 19-290); experiment: FACS, scFv-phage on CHO-K1/PD-L1 cells
T1 construct: whole, on cells; Also used here for PD-L1 on the monocyte-derived dendritic cells of the MLR assay (functional rows); also called CHO-K1/PD-L1; CHOK1-PD-L1
Method: After characterization of ability to bind PD-L1 in ELISA and RBA ELISA, the PD-L1-binding positive scFv clones were sequenced. […] Briefly, 2×10⁵ cells of the CHO-K1/PD-L1 cell line stably expressing huPD-L1 described above were added to round-bottom wells of a 96-well plate (Cat. No. 3799, Corning). A phage supernatant from an overnight culture that had been rescued by hyper phage was added. The mixture of CHO-K1/PD-L1 cells and phage supernatant in each well was diluted with 50 μl of FACS buffer (PBS with 2% FBS). The anti-PD-L1 scFv-phages were detected with murine anti-M13 phage antibody (Cat. No. 11973-MM05, Sino biological) and then with Donkey anti-Mouse IgG (H+L) Highly Cross-Adsorbed, Alexa Fluor® 488 conjugate, secondary antibody (Cat. No. A21202, Invitrogen). Cell fluorescence was monitored using a flow cytometer.

[2] = biological target: human PD-L1/Fc Fusion Protein (human); experiment: ELISA, scFv supernatant on coated human PD-L1/Fc
Method: Two hundred (200) single bacterial clones from each group of the third panning round were isolated and grown in culture to express a single scFv monoclonal antibodies (mAbs). The scFv mAbs were expressed in the bacterial culture supernatants, which were primarily screened by ELISA. […] 20 ng of human PD-L1/Fc protein in 100 μL PBS, pH 7.4, were directly coated in each well of a 96-well plate. An HRP-linked anti-c-myc antibody (Cat. No. Ab1261, Abcam) and TMB reagent were used to detect and develop the ELISA signal, which was read using a plate reader (SpectraMax® Plus 384; Molecular Devices) at a wavelength of 450 nm.

[3] = biological target: T2, human PD-L1/His fusion protein (human, UniProt Q9NZQ7 19-239); experiment: BLI Octet RED96, single concentration of human PD-L1-his
Method: Briefly, antibodies were characterized for affinities and binding kinetics by biolayer interferometry (BLI) using an Octet® RED96 sensor device (Pall ForteBio LLC). Antibodies were captured by anti-hIgG Fc Capture (AHC) Biosensors (Pall) at a concentration of 100 nM for 30 seconds. Sensors were then dipped into running buffer (1×, pH7.2, PBS, 0.05% Tween 20, 0.1% BSA) for 60 seconds to check baseline. Binding was measured by dipping sensors into a single concentration of recombinant human PD-L1-his protein. Dissociation was followed by dipping sensors into running buffer for 1200 seconds. The association and dissociation curves were fitted to a 1:1 Langmuir binding model using the manufacturer's data analysis software (ForteBio Data Analysis software, Pall ForteBio LLC).

[4] = biological target: T2, human PD-L1/His fusion protein; experiment: RBA ELISA: coated PD-L1/His, competitor biotinylated PD-1/Fc
Method: Anti-PD-L1 scFv supernatants were tested for ability to block PD-L1/PD-1 interaction. […] The mixtures were added to individual wells and incubated at room temperature for 30 minutes. […] Bound signal was developed by Streptavidin-HRP (Cat. No. S2468, Sigma) and read by a plate reader at a wavelength of 450 nm. A low signal, as with the positive control, indicated blocking activity.

[5] = biological target: T3, cynomolgus (cyno) PD-L1/His fusion protein (cynomolgus, UniProt G7PSE7 19-239); experiment: ELISA, scFv supernatant on cynomolgus PD-L1
T3 construct: also called cynomolgus PD-L1; not shown: His tag
T3 sequence (G7PSE7 entry or part of it): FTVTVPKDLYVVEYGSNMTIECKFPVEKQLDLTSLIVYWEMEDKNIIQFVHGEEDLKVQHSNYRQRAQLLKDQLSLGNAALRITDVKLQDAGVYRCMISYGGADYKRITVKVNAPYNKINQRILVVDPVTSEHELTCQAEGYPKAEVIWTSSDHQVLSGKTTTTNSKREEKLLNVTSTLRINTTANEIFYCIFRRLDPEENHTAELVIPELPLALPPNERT

T2 sequence (Q9NZQ7 19-239 limits assumed): as the sequence (G7PSE7 entry or part of it) above, with T33A, S34A, N62S, Q68R, R82Q, L173F, A185T, I192T, L215H counted along it
T1 sequence (Q9NZQ7 19-290): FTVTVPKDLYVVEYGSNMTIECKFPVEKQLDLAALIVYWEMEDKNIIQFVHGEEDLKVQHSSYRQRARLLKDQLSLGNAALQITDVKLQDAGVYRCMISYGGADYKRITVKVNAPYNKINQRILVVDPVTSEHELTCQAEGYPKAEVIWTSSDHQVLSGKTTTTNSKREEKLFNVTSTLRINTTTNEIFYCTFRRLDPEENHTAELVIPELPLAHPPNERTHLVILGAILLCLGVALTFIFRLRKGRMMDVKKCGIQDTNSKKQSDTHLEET
Chain of human PD-L1/Fc Fusion Protein (human) (chain, as listed by the source limits assumed): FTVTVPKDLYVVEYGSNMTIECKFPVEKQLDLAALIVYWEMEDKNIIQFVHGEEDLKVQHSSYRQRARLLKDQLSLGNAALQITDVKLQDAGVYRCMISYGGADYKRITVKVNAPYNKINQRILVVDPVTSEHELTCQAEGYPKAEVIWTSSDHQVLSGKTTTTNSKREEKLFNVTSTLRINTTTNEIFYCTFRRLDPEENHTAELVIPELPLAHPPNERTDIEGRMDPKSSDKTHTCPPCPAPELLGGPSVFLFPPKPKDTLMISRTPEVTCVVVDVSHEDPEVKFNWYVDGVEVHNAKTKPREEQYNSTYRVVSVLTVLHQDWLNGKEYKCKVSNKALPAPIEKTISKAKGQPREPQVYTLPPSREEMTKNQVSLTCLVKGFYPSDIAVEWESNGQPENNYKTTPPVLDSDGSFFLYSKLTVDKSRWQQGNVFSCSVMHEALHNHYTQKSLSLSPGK

Row | Binder | Binding to CHOK1-PD-L1 (X Geo Mean) [1] | EC50 [2] | koff [3] | RBA (% inhibition) [4] | EC50 [5]
1 | EM0005-mAb87 scFv (scFv, Tested as bacterial culture supernatant and as scFv-displaying phage in FACS; tags of the pCAN phagemid not spelled out for library clones; also called 4E8) scFv: EVQLQQSGPELVKPGASVKISCKASGYSFTDYYINWVKQSPEKSLEWIGETIPNTGGTTYNQKFKAKATLTVDKSSSTAYMQLKSLTSEDSAVYYCARYQSGSPFAYWGQGTPVTVSSGGGGSGGGGSGGGGSDIVMTQSQKFMSTTVGDRVSITCKASQNVGTAVAWYQQKPGQSPKLLIYSASNRYTGVPDRFTGSGSGTDFTLTISNMQSEDLADYFCQQHYSTPYTFGGGTKLEIK | 49.7 | 3.02 nM | 0.000206 s⁻¹ | 99.8% | 4 nM
2 | EM0005-mAb86 scFv (scFv, Tested as bacterial culture supernatant (detected with anti-c-myc antibody; tags of the pCAN phagemid not spelled out for library clones) and as scFv-displaying phage in FACS; also called 3A3) scFv: QVQLQQSGAELVRPGSSVKMSCKTSGYTFTTYGINWVKQRPGQGLEWIGYIYIGNGYTEYNEKFKGKATLTSDPSSRTAYMQLSSLTSEDSAIYFCARDLMVIAPKTMDYWGQGTSVTVSSGGGGSGGGGSGGGGSDIQMNQSHKFMSTSVGDRVSITCKASQDVGTAVAWYQQKPGQSPKLLIYWASTRHTGVPDRFTGGGSGTDFTLTISNVQSEDLADYFCQQYSSYPYTFGGGTKLEMK | 27.6 | 1.19 nM | 0.000197 s⁻¹ | 100% | 4 nM
3 | EM0005-mAb90 scFv (scFv, Tested as bacterial culture supernatant and as scFv-displaying phage in FACS; tags of the pCAN phagemid not spelled out for library clones; also called 6C11) scFv: QVQLKQSGAELVRPGSSVKMSCKTSGYTFTSHSINWVKQRPGQGLEWIGYMYIGNGYTEYNEKFKGKATLTSDTSSTTAYMQLSSLTSEDSAIYFCAKITPVVAPYVMDYWGQGTSVTVSSGGGGSGGGGSGGGGSDIVMTQTHKFMSTSVGDRVSITCKASQDVGTAVAWYQQKPGQSPKLLIYWASTRHTGVPDRFTGSGSGTDFTLTISNVQSEDLADYFCQQYSSYPYTFGGGTKLELK | 36.6 |  | 0.000232 s⁻¹ | 100% | 4 nM

— patent US20230242675A1 (SHANGHAI EPIMAB BIOTHERAPEUTICS, published 2023)
